Here are results for nine sequences from the supplement of paper PMC11316812.

± gives the standard deviation of the averaged measurements.

The test system of one data set is MCF7. Description: percentage of EdU-negative (G0-arrested) nuclei per well, 72 h; higher = more G0 arrest. Particulars: reference: sequence is the full UniProt precursor, the tested protein was the secreted form or ectodomain.
For a further data set, the system named is hTERT-HMEC. Described as above. The note with it: reference: sequence is the full UniProt precursor, the tested protein was the secreted form or ectodomain.
Where [1] appears, read: protein concentration 0.0166175 µM.
Setting [2] is: protein concentration 0.166175 µM.
The mark [3] stands for this setting: protein concentration 0.02823 µM.
Where [4] appears, read: protein concentration 0.2823 µM.
Setting [5] is: protein concentration 0.0225 µM.
Setting [6] is: protein concentration 0.01425 µM.
[7] abbreviates: protein concentration 0.1425 µM.
[8] abbreviates: protein concentration 0.0202725 µM.
The mark [9] stands for this setting: protein concentration 0.202725 µM.
Where [10] appears, read: protein concentration 0.0357143 µM.
[11] abbreviates: protein concentration 0.357143 µM.
Where [12] appears, read: protein concentration 0.03125 µM.
Setting [13] is: protein concentration 0.3125 µM.
The mark [14] stands for this setting: protein concentration 0.01034 µM.
Where [15] appears, read: protein concentration 0.1034 µM.
Setting [16] is: protein concentration 0.0294275 µM.
Where [17] appears, read: protein concentration 0.294275 µM.
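Note: secreted proteins added to cultured cells, EdU pulse at the end, nuclei found by Hoechst imaging, EdU status from nuclear versus surrounding ring intensity ratio, PBS as neutral control.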

As for “MERAAPSRRVPLPLLLLGGLALLAAGVDADVLLEACCADGHRMATHQKDCSLPYATESKECRMVQEQCCHSQLEELHCATGISLANEQDRCATPHGDNASLEATFVKRCCHCCLLGRAAQAQGQSCEYSLMVGYQCGQVFQACCVKSQETGDLDVGGLQETDKIIEVEEEQEDPYLNDRCRGGGPCKQQCRDTGDEVVCSCFVGYQLLSDGVSCEDVNECITGSHSCRLGESCINTVGSFRCQRDSSCGTGYELTEDNSCKDIDECESGIHNCLPDFICQNTLGSFRCRPKLQCKSGFIQDALGNCIDINECLSISAPCPIGHTCINTEGSYTCQKNVPNCGRGYHLNEEGTRCVDVDECAPPAEPCGKGHRCVNSPGSFRCECKTGYYFDGISRMCVDVNECQRYPGRLCGHKCENTLGSYLCSCSVGFRLSVDGRSCEDINECSSSPCSQECANVYGSYQCYCRRGYQLSDVDGVTCEDIDECALPTGGHICSYRCINIPGSFQCSCPSSGYRLAPNGRNCQDIDECVTGIHNCSINETCFNIQGGFRCLAFECPENYRRSAATLQQEKTDTVRCIKSCRPNDVTCVFDPVHTISHTVISLPTFREFTRPEEIIFLRAITPPHPASQANIIFDITEGNLRDSFDIIKRYMDGMTVGVVRQVRPIVGPFHAVLKLEMNYVVGGVVSHRNVVNVHIFVSEYWF”, the “percentage of EdU-negative” value in the data set on MCF7 (setting [1]) worked out at 27.1 ± 0.61%; with MCF7 (setting [2]), 26.7 ± 1.6%; with hTERT-HMEC (setting [1]) it was 3.95 ± 0.058%; with hTERT-HMEC (setting [2]), 5.63 ± 0.19%.

Turning to “MERASCLLLLLLPLVHVSATTPEPCELDDEDFRCVCNFSEPQPDWSEAFQCVSAVEVEIHAGGLNLEPFLKRVDADADPRQYADTVKALRVRRLTVGAAQVPAQLLVGALRVLAYSRLKELTLEDLKITGTMPPLPLEATGLALSSLRLRNVSWATGRSWLAELQQWLKPGLKVLSIAQAHSPAFSCEQVRAFPALTSLDLSDNPGLGERGLMAALCPHKFPAIQNLALRNTGMETPTGVCAALAAAGVQPHSLDLSHNSLRATVNPSAPRCMWSSALNSLNLSFAGLEQVPKGLPAKLRVLDLSCNRLNRAPQPDELPEVDNLTLDGNPFLVPGTALPHEGSMNSGVVPACARSTLSVGVSGTLVLLQGARGFA”, the “percentage of EdU-negative” value with MCF7 (setting [3]) came to 26.8 ± 1.2%; with MCF7 (setting [4]) it was 27.2 ± 0.7%; in the data set on hTERT-HMEC (setting [3]), 4.9 ± 0.54%; with hTERT-HMEC (setting [4]) it was 8.12 ± 1.2%.

Consider “MERASLIQKAKLAEQAERYEDMAAFMKGAVEKGEELSCEERNLLSVAYKNVVGGQRAAWRVLSSIEQKSNEEGSEEKGPEVREYREKVETELQGVCDTVLGLLDSHLIKEAGDAESRVFYLKMKGDYYRYLAEVATGDDKKRIIDSARSAYQEAMDISKKEMPPTNPIRLGLALNFSVFHYEIANSPEEAISLAKTTFDEAMADLHTLSEDSYKDSTLIMQLLRDNLTLWTADNAGEEGGEAPQEPQS”, for which the “percentage of EdU-negative” value in the data set with MCF7 (setting [5]) is 25.3 ± 4.8%; in the data set on MCF7 (protein concentration 0.225 µM), 20.9 ± 1.9%; in the data set with hTERT-HMEC (setting [5]) it was 4.93 ± 0.53%; in the data set on hTERT-HMEC (protein concentration 0.225 µM) it was 5.22 ± 0.073%.

Regarding “MERCPSLGVTLYALVVVLGLRATPAGGQHYLHIRPAPSDNLPLVDLIEHPDPIFDPKEKDLNETLLRSLLGGHYDPGFMATSPPEDRPGGGGGAAGGAEDLAELDQLLRQRPSGAMPSEIKGLEFSEGLAQGKKQRLSKKLRRKLQMWLWSQTFCPVLYAWNDLGSRFWPRYVKVGSCFSKRSCSVPEGMVCKPSKSVHLTVLRWRCQRRGGQRCGWIPIQYPIISECKCSC”, the “percentage of EdU-negative” value came to 23.9 ± 0.44% in the data set on MCF7 (setting [6]), 25.4 ± 2.8% with MCF7 (setting [7]), 4.77 ± 0.41% in the data set on hTERT-HMEC (setting [6]) and 5.81 ± 0.99% in the data set on hTERT-HMEC (setting [7]).

Turning to “MERDGCAGGGSRGGEGGRAPREGPAGNGRDRGRSHAAEAPGDPQAAASLLAPMDVGEEPLEKAARARTAKDPNTYKVLSLVLSVCVLTTILGCIFGLKPSCAKEVKSCKGRCFERTFGNCRCDAACVELGNCCLDYQETCIEPEHIWTCNKFRCGEKRLTRSLCACSDDCKDKGDCCINYSSVCQGEKSWVEEPCESINEPQCPAGFETPPTLLFSLDGFRAEYLHTWGGLLPVISKLKKCGTYTKNMRPVYPTKTFPNHYSIVTGLYPESHGIIDNKMYDPKMNASFSLKSKEKFNPEWYKGEPIWVTAKYQGLKSGTFFWPGSDVEINGIFPDIYKMYNGSVPFEERILAVLQWLQLPKDERPHFYTLYLEEPDSSGHSYGPVSSEVIKALQRVDGMVGMLMDGLKELNLHRCLNLILISDHGMEQGSCKKYIYLNKYLGDVKNIKVIYGPAARLRPSDVPDKYYSFNYEGIARNLSCREPNQHFKPYLKHFLPKRLHFAKSDRIEPLTFYLDPQWQLALNPSERKYCGSGFHGSDNVFSNMQALFVGYGPGFKHGIEADTFENIEVYNLMCDLLNLTPAPNNGTHGSLNHLLKNPVYTPKHPKEVHPLVQCPFTRNPRDNLGCSCNPSILPIEDFQTQFNLTVAEEKIIKHETLPYGRPRVLQKENTICLLSQHQFMSGYSQDILMPLWTSYTVDRNDSFSTEDFSNCLYQDFRIPLSPVHKCSFYKNNTKVSYGFLSPPQLNKNSSGIYSEALLTTNIVPMYQSFQVIWRYFHDTLLRKYAEERNGVNVVSGPVFDFDYDGRCDSLENLRQKRRVIRNQEILIPTHFFIVLTSCKDTSQTPLHCENLDTLAFILPHRTDNSESCVHGKHDSSWVEELLMLHRARITDVEHITGLSFYQQRKEPVSDILKLKTHLPTFSQED”, the “percentage of EdU-negative” value in the data set with MCF7 (setting [8]) was 25.1 ± 0.47%; in the data set on MCF7 (setting [9]) it was 24.77 ± 0.21%; in the data set on hTERT-HMEC (setting [8]), 4.82 ± 0.41%; in the data set with hTERT-HMEC (setting [9]), 5.77 ± 0.8%.

For the sequence “MERLVIRMPFSHLSTYSLVWVMAAVVLCTAQVQVVTQDEREQLYTPASLKCSLQNAQEALIVTWQKKKAVSPENMVTFSENHGVVIQPAYKDKINITQLGLQNSTITFWNITLEDEGCYMCLFNTFGFGKISGTACLTVYVQPIVSLHYKFSEDHLNITCSATARPAPMVFWKVPRSGIENSTVTLSHPNGTTSVTSILHIKDPKNQVGKEVICQVLHLGTVTDFKQTVNKGYWFSVPLLLSIVSLVILLVLISILLYWKRHRNQDRGELSQGVQKMT”, the “percentage of EdU-negative” value in the data set with MCF7 (setting [10]) amounted to 23.6 ± 3.9%; with MCF7 (setting [11]), 23.5 ± 1%; with hTERT-HMEC (setting [10]), 5.34 ± 1.2%; in the data set on hTERT-HMEC (setting [11]), 5.8 ± 1%.

For the sequence “MERMLPLLALGLLAAGFCPAVLCHPNSPLDEENLTQENQDRGTHVDLGLASANVDFAFSLYKQLVLKAPDKNVIFSPLSISTALAFLSLGAHNTTLTEILKGLKFNLTETSEAEIHQSFQHLLRTLNQSSDELQLSMGNAMFVKEQLSLLDRFTEDAKRLYGSEAFATDFQDSAAAKKLINDYVKNGTRGKITDLIKDLDSQTMMVLVNYIFFKAKWEMPFDPQDTHQSRFYLSKKKWVMVPMMSLHHLTIPYFRDEELSCTVVELKYTGNASALFILPDQDKMEEVEAMLLPETLKRWRDSLEFREIGELYLPKFSISRDYNLNDILLQLGIEEAFTSKADLSGITGARNLAVSQVVHKAVLDVFEEGTEASAATAVKITLLSALVETRTIVRFNRPFLMIIVPTDTQNIFFMSKVTNPKQA”, the “percentage of EdU-negative” value in the data set on MCF7 (setting [12]) came out at 24.5 ± 0.068%; in the data set with MCF7 (setting [13]), 28 ± 3.5%; in the data set on hTERT-HMEC (setting [12]), 4.76 ± 0.8%; in the data set with hTERT-HMEC (setting [13]), 9.51 ± 0.15%.

As for “MERPLCSHLCSCLAMLALLSPLSLAQYDSWPHYPEYFQQPAPEYHQPQAPANVAKIQLRLAGQKRKHSEGRVEVYYDGQWGTVCDDDFSIHAAHVVCRELGYVEAKSWTASSSYGKGEGPIWLDNLHCTGNEATLAACTSNGWGVTDCKHTEDVGVVCSDKRIPGFKFDNSLINQIENLNIQVEDIRIRAILSTYRKRTPVMEGYVEVKEGKTWKQICDKHWTAKNSRVVCGMFGFPGERTYNTKVYKMFASRRKQRYWPFSMDCTGTEAHISSCKLGPQVSLDPMKNVTCENGLPAVVSCVPGQVFSPDGPSRFRKAYKPEQPLVRLRGGAYIGEGRVEVLKNGEWGTVCDDKWDLVSASVVCRELGFGSAKEAVTGSRLGQGIGPIHLNEIQCTGNEKSIIDCKFNAESQGCNHEEDAGVRCNTPAMGLQKKLRLNGGRNPYEGRVEVLVERNGSLVWGMVCGQNWGIVEAMVVCRQLGLGFASNAFQETWYWHGDVNSNKVVMSGVKCSGTELSLAHCRHDGEDVACPQGGVQYGAGVACSETAPDLVLNAEMVQQTTYLEDRPMFMLQCAMEENCLSASAAQTDPTTGYRRLLRFSSQIHNNGQSDFRPKNGRHAWIWHDCHRHYHSMEVFTHYDLLNLNGTKVAEGHKASFCLEDTECEGDIQKNYECANFGDQGITMGCWDMYRHDIDCQWVDITDVPPGDYLFQVVINPNFEVAESDYSNNIMKCRSRYDGHRIWMYNCHIGGSFSEETEKKFEHFSGLLNNQLSPQ [Q9Y4K0]”, the “percentage of EdU-negative” value in the data set with MCF7 (setting [14]) is 25.4 ± 0.28%; with MCF7 (setting [15]) it was 27.7 ± 0.84%; in the data set on hTERT-HMEC (setting [14]), 4.4 ± 0.43%; in the data set with hTERT-HMEC (setting [15]), 9.13 ± 1.5%.

With “MERPSLRALLLGAAGLLLLLLPLSSSSSSDTCGPCEPASCPPLPPLGCLLGETRDACGCCPMCARGEGEPCGGGGAGRGYCAPGMECVKSRKRRKGKAGAAAGGPGVSGVCVCKSRYPVCGSDGTTYPSGCQLRAASQRAESRGEKAITQVSKGTCEQGPSIVTPPKDIWNVTGAQVYLSCEVIGIPTPVLIWNKVKRGHYGVQRTELLPGDRDNLAIQTRGGPEKHEVTGWVLVSPLSKEDAGEYECHASNSQGQASASAKITVVDALHEIPVKKGEGAEL”, the “percentage of EdU-negative” value with MCF7 (setting [16]) came out at 25.4 ± 0.77%; in the data set with MCF7 (setting [17]), 26.5 ± 1.5%; in the data set on hTERT-HMEC (setting [16]), 4.88 ± 0.84%; with hTERT-HMEC (setting [17]), 5.65 ± 0.3%.
